Data set [1] deals with T1, tTF-GCNGRCG fusion polypeptide.
T1 chain: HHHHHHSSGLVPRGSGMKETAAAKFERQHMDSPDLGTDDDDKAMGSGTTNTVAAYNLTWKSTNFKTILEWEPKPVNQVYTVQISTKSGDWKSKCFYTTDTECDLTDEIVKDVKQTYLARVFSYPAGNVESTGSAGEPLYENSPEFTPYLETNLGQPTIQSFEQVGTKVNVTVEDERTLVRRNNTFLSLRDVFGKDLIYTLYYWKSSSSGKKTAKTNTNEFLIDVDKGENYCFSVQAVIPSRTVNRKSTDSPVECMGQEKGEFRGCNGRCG

Data set [2] deals with T2, tTF-GRGDSP fusion polypeptide with N-terminal affinity tag.
T2 chain: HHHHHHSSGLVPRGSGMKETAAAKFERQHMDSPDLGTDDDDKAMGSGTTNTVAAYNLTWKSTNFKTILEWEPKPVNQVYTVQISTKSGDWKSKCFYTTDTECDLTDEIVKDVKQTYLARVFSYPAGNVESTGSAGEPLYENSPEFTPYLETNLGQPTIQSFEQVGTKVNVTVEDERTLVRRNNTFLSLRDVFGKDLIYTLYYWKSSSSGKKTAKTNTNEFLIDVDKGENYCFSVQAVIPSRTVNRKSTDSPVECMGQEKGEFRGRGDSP

Data set [3] addresses the fusion polypeptides (tTF fusion polypeptides).
For data set [4], the target named is T3, truncated human tissue factor tTF1-218.
T3 chain: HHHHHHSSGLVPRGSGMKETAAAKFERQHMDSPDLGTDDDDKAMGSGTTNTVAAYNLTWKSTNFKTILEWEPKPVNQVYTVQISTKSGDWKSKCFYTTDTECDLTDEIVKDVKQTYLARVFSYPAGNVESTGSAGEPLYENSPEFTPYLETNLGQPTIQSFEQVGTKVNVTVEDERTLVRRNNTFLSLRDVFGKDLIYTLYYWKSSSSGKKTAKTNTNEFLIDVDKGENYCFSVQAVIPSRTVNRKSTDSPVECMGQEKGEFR

The target of data set [5] is T4, tTF-GNGRAHA fusion polypeptide with N-terminal affinity tag.
T4 chain: T1 chain with C265N, N266G, G267R, R268A, C269H, G270A

Data set [6] concerns the target T5, tTF-GCVLNGRMEC fusion polypeptide.
T5 chain: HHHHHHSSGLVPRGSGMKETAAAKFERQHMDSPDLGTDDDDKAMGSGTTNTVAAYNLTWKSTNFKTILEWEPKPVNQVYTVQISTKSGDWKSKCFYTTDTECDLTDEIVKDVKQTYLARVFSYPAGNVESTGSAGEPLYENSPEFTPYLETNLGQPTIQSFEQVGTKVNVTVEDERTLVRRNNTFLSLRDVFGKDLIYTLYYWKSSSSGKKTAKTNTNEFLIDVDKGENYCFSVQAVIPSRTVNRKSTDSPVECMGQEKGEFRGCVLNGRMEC

Data set [7] deals with T6, tTF-GCNGRCVSGCAGRC fusion polypeptide.
T6 chain: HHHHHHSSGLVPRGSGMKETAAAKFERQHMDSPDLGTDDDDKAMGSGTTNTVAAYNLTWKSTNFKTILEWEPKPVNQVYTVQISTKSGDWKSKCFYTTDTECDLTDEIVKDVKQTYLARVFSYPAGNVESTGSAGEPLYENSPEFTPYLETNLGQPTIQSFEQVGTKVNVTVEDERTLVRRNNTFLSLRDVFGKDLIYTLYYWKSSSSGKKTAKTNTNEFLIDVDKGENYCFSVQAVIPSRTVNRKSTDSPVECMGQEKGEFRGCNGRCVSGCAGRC

Data set [8] deals with T7, tTF-GALNGRSHAG fusion polypeptide.
T7 chain: T5 chain with C265A, V266L, L267N, N268G, G269R, R270S, M271H, E272A, C273G

In data set [9] the target is T8, integrin αvβ3 on cultivated human endothelial cells (human, UniProt P06756 31-1048; P05106 27-788).
T8 construct: whole, on cells; The cells express αvβ3 naturally; also called αvβ3 on endothelial cells
T8 sequence (P06756 31-1048, chain 1 of 2): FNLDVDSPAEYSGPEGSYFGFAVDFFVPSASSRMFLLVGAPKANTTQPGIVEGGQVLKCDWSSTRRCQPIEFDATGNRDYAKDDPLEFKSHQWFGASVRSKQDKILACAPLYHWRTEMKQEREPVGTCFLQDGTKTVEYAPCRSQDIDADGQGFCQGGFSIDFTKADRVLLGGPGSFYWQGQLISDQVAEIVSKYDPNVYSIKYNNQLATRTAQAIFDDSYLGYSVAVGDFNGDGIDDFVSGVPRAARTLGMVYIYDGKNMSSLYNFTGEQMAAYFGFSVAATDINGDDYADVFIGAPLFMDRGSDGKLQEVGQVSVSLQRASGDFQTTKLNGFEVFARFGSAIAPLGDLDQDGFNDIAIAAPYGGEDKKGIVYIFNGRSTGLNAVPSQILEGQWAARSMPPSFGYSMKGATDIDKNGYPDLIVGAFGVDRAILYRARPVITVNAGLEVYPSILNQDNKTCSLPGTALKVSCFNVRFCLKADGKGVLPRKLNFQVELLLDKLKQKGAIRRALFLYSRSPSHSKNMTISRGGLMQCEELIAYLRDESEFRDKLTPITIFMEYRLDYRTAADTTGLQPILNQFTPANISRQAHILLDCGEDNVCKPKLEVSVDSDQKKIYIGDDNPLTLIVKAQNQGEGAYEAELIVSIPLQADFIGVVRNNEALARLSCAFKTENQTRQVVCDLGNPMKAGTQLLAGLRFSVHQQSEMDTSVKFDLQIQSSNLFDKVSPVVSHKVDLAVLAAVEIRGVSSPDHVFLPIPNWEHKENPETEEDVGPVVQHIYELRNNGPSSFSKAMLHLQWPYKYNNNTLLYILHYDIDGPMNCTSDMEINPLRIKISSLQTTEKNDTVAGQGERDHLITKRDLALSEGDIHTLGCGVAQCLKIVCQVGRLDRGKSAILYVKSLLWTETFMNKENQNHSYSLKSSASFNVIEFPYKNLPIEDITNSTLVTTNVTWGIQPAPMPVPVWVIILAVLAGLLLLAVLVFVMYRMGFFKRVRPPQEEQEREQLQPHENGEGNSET
T8 sequence (P05106 27-788, chain 2 of 2): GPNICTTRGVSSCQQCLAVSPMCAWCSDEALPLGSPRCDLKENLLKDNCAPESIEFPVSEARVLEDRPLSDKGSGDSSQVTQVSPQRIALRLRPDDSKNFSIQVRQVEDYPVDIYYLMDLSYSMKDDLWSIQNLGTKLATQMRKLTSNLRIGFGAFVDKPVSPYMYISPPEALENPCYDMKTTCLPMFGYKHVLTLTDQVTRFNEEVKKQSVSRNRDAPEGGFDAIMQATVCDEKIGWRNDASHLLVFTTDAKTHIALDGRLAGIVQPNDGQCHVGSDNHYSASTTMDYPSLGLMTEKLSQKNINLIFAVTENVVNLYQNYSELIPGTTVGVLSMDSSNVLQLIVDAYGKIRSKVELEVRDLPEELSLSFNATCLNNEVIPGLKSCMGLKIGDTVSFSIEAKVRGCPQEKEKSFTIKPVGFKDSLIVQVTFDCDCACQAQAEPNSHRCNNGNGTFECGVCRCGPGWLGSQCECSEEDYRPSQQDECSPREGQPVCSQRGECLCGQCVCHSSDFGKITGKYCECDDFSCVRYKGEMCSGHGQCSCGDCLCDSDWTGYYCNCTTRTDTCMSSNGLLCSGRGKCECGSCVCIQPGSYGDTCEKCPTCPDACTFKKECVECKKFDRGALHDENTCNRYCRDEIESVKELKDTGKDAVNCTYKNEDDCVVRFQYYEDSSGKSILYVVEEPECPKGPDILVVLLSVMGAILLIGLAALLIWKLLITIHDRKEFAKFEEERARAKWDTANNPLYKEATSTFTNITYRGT
Description: FACS, biotinylated protein (0.1 µM) on human endothelial cells in suspension, streptavidin-phycoerythrin detection; reference tTF. In general terms: A flow cytometer gives signals particle by particle.

Experimental findings from patent US20070032419A1 (ONCOSCIENCE, published 2007) are described below.

Residue numbers refer to the chain shown, from its start.

B1: recombinant factor VIIa (Novo-Nordisk) (protein)
chain: ANAFLEELRPGSLERECKEEQCSFEEAREIFKDAERTKLFWISYSDGDQCASSPCQNGGSCKDQLQSYICFCLPAFEGRNCETHKDDQLICVNENGGCEQYCSDHTGTKRSCRCHEGYSLLADGVSCTPTVEYPCGKIPILEKRNASKPQGRIVGGKVCPKGECPWQVLLLVNGAQLCGGTLINTIWVVSAAHCFDKIKNWRNLIAVLGEHDLSEHDGDEQSRRVAQVIIPSTYVPGTTNHDIALLRLHQPVVLTDHVVPLCLPERTFSERTLAFVRFSLVSGWGQLLDRGATALELMVLNVPRLMTQDCLQQSRKVGDSPNITEYMFCAGYSDGSKDSCKGDSGGPHATHYRGTWYLTGIVSWGQGCATVGHFGVYTRVSQYIEWLQKLMRSEPRPGVLLRAPFP
For the molecule B1, the “proteolytic activation of FX via FVIIa in the presence of phospholipids (chromogenic FXa assay)” value in [1] was “both tTF and the tTF fusion polypeptides are functionally active under these conditions”; in [2], “both tTF and the tTF fusion polypeptides are functionally active under these conditions”; in [4], “both tTF and the tTF fusion polypeptides are functionally active under these conditions”; in data set [5], “both tTF and the tTF fusion polypeptides are functionally active under these conditions”; in data set [6], “both tTF and the tTF fusion polypeptides are functionally active under these conditions”; in data set [7], “both tTF and the tTF fusion polypeptides are functionally active under these conditions”. Moreover, the “proteolytic activation of FX via FVIIa in the presence of phospholipids (chromogenic FXa assay)” value in [8] was “both tTF and the tTF fusion polypeptides are functionally active under these conditions”. Also, the “Michaelis constant (Km) for activation of FX by FVIIa/tTF fusion protein” value in data set [3] is listed as “in the range 0.12-1.2 nM”.

B2: tTF-GRGDSP fusion polypeptide with N-terminal affinity tag (other)
chain: T2 chain
notes: It was biotinylated for the FACS assay; also called tTF-RGD
For B2, the “fluorescence intensity, fold over tTF” value in data set [9] came to 8 fold.
